Residue numbers refer to the chain shown, from its start.
T1: human aquaporin 2 (AQP2), wild-type (human, UniProt P41181 1-271, cysteine residues labeled with C5 maleimide Alexa 488; dephosphorylated with alkaline phosphatase before labeling)
T1 construct: concentrations and molar ratios seem to count monomers; His-tag is called uncleavable; also called WT; labeled AQP2; source: Pichia pastoris, purified (HisTrap, SEC) in OGNG; not shown: His-tag, N-terminal, kept
T1 sequence (looked up): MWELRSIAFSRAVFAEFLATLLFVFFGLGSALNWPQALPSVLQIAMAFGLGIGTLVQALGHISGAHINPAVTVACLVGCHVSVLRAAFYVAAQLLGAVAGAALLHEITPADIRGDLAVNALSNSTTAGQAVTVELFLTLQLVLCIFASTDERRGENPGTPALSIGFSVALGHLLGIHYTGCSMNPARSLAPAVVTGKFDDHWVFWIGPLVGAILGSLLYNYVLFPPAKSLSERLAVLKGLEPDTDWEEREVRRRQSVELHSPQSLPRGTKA

B1: human AQP2 L234A (natural protein, UniProt P41181 1-271, looked up)
chain: T1 sequence (looked up) with L234A
modifications: cysteine residues labeled with C5 maleimide Alexa 488; dephosphorylated with alkaline phosphatase before labeling
notes: Mutant of m1; source: Pichia pastoris, purified (HisTrap, SEC) in OGNG; not shown: His-tag, N-terminal, kept
B2: human AQP2 R233A (natural protein, UniProt P41181 1-271, looked up)
chain: T1 sequence (looked up) with R233A
modifications: cysteine residues labeled with C5 maleimide Alexa 488; dephosphorylated with alkaline phosphatase before labeling
notes: as for B1
B3: human AQP2 K238A (natural protein, UniProt P41181 1-271, looked up)
chain: T1 sequence (looked up) with K238A
modifications: cysteine residues labeled with C5 maleimide Alexa 488; dephosphorylated with alkaline phosphatase before labeling
notes: as for B1
B4: human AQP2 L230A (natural protein, UniProt P41181 1-271, looked up)
chain: T1 sequence (looked up) with L230A
modifications: cysteine residues labeled with C5 maleimide Alexa 488; dephosphorylated with alkaline phosphatase before labeling
notes: as for B1
B5: human AQP2 L237A (natural protein, UniProt P41181 1-271, looked up)
chain: T1 sequence (looked up) with L237A
modifications: cysteine residues labeled with C5 maleimide Alexa 488; dephosphorylated with alkaline phosphatase before labeling
notes: as for B1
B6: human AQP2 E241A (natural protein, UniProt P41181 1-271, looked up)
chain: T1 sequence (looked up) with E241A
modifications: cysteine residues labeled with C5 maleimide Alexa 488; dephosphorylated with alkaline phosphatase before labeling
notes: as for B1
B7: N-terminal domain of human LIP5 (ND-LIP5, residues 1-162) (domain or fragment)
chain: MAALAPLPPLPAQFKSIQHHLRTAQEHDKRDPVVAYYCRLYAMQTGMKIDSKTPECRKFLSKLMDQLEALKKQLGDNEAITQEIVGCAHLENYALKMFLYADNEDRAGRFHKNMIKSFYTASLLIDVITVFGELTDENVKHRKYARWKATYIHNCLKNGETPDYDIPTT
notes: LIP5, human, N-terminal domain, residues 1-162; spacer between the last ND-LIP5 residue and the TEV protease site that precedes the His tag; TEV site between spacer and His tag; no cleavage described; source: E. coli BL21*(DE3), purified (HisTrap, SEC)
B8: full-length human lysosomal trafficking regulator-interacting protein 5 (FL-LIP5) (natural protein)
chain: MAALAPLPPLPAQFKSIQHHLRTAQEHDKRDPVVAYYCRLYAMQTGMKIDSKTPECRKFLSKLMDQLEALKKQLGDNEAITQEIVGCAHLENYALKMFLYADNEDRAGRFHKNMIKSFYTASLLIDVITVFGELTDENVKHRKYARWKATYIHNCLKNGETPQAGPVGIEEDNDIEENEDAGAASLPTQPTQPSSSSTYDPSNMPSGNYTGIQIPPGAHAPANTPAEVPHSTGVASNTIQPTPQTIPAIDPALFNTISQGDVRLTPEDFARAQKYCKYAGSALQYEDVSTAVQNLQKALKLLTTGREDYDIPTT
notes: spacer between the last LIP5 residue and the TEV protease site that precedes the His tag; same tag, TEV site and linker as ND-LIP5; No TEV cleavage is described; also called full-length LIP5; wild-type LIP5; source: E. coli BL21*(DE3), purified (HisTrap, SEC)

target: B8; test: other fluorescence titration; Alexa 488-labeled, dephosphorylated AQP2 (around 1 uM) in the cuvette, titrated with unlabeled LIP5; total fluorescence; 20 mM Tris-HCl pH 8, 300 mM NaCl, 0.2% OGNG; triplicate titrations; details: both partners purified

Row | Kd | Binder
1 | 126 nM | B1
2 | 487 nM | B2
3 | 552 nM | B3
4 | 156 nM | B4
5 | 535 nM | B5
6 | 700 nM | B6

target: T1, human aquaporin 2 (AQP2), wild-type; test: as above; details: both partners purified

Row | Kd | Binder
7 | 64.4 nM | B7

target: T1, human aquaporin 2 (AQP2), wild-type; test: other fluorescence titration; stoichiometry: labeled AQP2 kept 20 times above the Kd, LIP5 added to a molar LIP5:AQP2 ratio between 0 and 2; saturation point from the intercept of two linear fits; same buffers; details: both partners purified

Row | stoichiometry N | Binder
8 | 0.29 molar ratio ND-LIP5:AQP2 | B7
9 | 0.42 molar ratio FL-LIP5:AQP2 | B8

From publication PMC6862464, “Structural Insights into AQP2 Targeting to Multivesicular Bodies” (International Journal of Molecular Sciences, 2019)
